Results as given in patent publication US7939292B2, “Modified heparinase III and methods of sequencing therewith” (Massachusetts Institute of Technology, priority 2000, dated 2011).

Experiments:
Erk-1, 2 = test: Total and phosphorylated Erk-1, 2 in heparinase-treated B16BL6 tumor; parameters: species or system mice; conditions: mouse, in vivo
Experimental: e. Level of total and phosphorylated Erk-1, 2 in heparinase-treated B16BL6 tumor. Tumor homogenates were prepared and processed as described in c. The supernatant was used for total protein concentration assay and immunoblotting. The immunoblot was detected as described in a.

B16BL6 cells = test: FGF-induced proliferation of B16BL6 cells in vitro; type: cell-based
FGFR1 = FGFR1 phosphorylation in B16BL6 tumor samples; parameters: species or system mice; conditions: mouse, in vivo
Experimental: c. Effect of treatment of tumor with hep I and hep III in FGFR1 activation compared to PBS. Level of phosphorylated FGFR1 in tumor samples was assessed by standard immunoprecipitation followed by Westernblotting with phosphotyrosine specific antibody. Primary B16BL6 tumors were grown and treated as described earlier and at day 15 the tumor was harvested in cold modified RIPA buffer containing enzyme inhibitors and homogenized. The homogenates were past through 25-gauge needle 3 times and centrifuged. The supernatant was adjusted for protein concentration using the Bio-Rad protein assay kit (Bio-Rad). FGFR1 was immunoprecipitated with poly-clonal anti-FGFR1 antibody (Santa Cruz Biotechnology, Inc., CA). Samples were then pelleted, washed, and eluted from the beads by addition of sample buffer and boiled for 3 minutes (Kapila, Y. L., Wang, S. & Johnson, P. W. Mutations in the heparin binding domain of fibronectin in cooperation with the V region induce decreases in pp125(FAK) levels plus proteoglycan-mediated apoptosis via caspases. J Biol Chem 274, 30906-13 (1999).). After electrophoresis, the gel was transferred to nitrocellulose membrane by standard methods. The immunoblot was probed with phosphotyrosine specific antibody conjugated to HRP (RC20; Transduction Laboratories, Lexington, Ky.) and developed with SuperSignal West Pico Chemiluminescent substrate. […]

Akt = Akt activation in B16BL6 tumor; parameters: species or system mice; conditions: mouse, in vivo
Experimental: f. Effect of heparinase treatment on Akt activation. The primary tumor was treated and processed as described above. Akt antibody and phospho-Akt antibody from New England Biolabs were used to probe the immunoblot.

B16BL6 melanoma [1] = test: Histological examination of tumor samples (apoptosis, TdT labeling); type: in vivo, mice
Experimental: Immunohistochemistry was done as described (Parangi et al., 1996; O'Reilly et al., 1994) with minor modifications. Briefly, tumor tissues were fixed in either 4% (vol/vol) formaldehyde overnight for von Willebrand factor (vWF) staining and terminal deoxynucleotide transferase (TdT) labeling or in Glyo-Fixx solution overnight for Ki-67 nuclear antigen staining. Tissues were embedded in paraffin according to standard histological procedures. For vWF staining, sections (5 μm thick) were incubated with 0.2 N HCl for 10 min. autoclaved in a Coplin jar immersed with Target retrieval Solution (Dako) for 15 min. and permeabilized with 2 μg/ml proteinase K at 37° C. for 15 min. Sections were incubated with rabbit anti-human vWF antibody coupled with horseradish peroxidase (HRP) (Dako). Positive staining was detected by substrate reaction with diaminobenzidine. Sections were counterstained with Gill's hematoxylin and mounted in Permount (Fisher). […] Capillary density was determined by counting the number of vWF-positive capillaries per high power field (HPF, ×200). The proliferative and apoptotic indices of tumor cells within areas of viable tumor were estimated from the percentage of cells scored under a light microscope at 400-fold magnification. A minimum of 2000 cells were counted in each animal. # indicates standard error.

FAK = test: Activation of FAK in B16BL6 tumor; parameters: species or system mice; conditions: mouse, in vivo
From the text: d. Effect of heparinase treatment on activation of FAK in B16BL6 tumor. The FAK protein was immunoprecipitated with mouse anti-FAK monoclonal antibody (Transduction Laboratories, Lexington, Ky.) according to the procedures described above. The phosphorylated FAK was detected using phosphotyrosine specific antibody RC20.

B16BL6 melanoma [2] = test: Primary tumor growth of B16BL6 melanoma in mice treated with heparinases; type: in vivo
From the text: Heparinases I and III, which have very distinct substrate specificities for cleaving HLGAGs, were employed as tools to investigate the role of HLGAGs in tumor growth and metastasis. While heparinase I cleaves at the highly sulfated regions of HLGAGs, heparinase III only cleaves at the under-sulfated regions of the polysaccharide chain, thereby rendering these enzymes powerful tools to investigate in vivo and in vitro roles of HLGAGs, in development, morphogenesis, angiogenesis etc. To examine the roles of HLGAGs in tumor growth and metastasis, we used B16BL6 melanoma as a model system and treated tumor-bearing mice with either heparinases I or III to investigate both primary tumor growth as well as tumor metastasis. Consistent with the current paradigm, heparinase I accelerated tumor growth (FIG. 8). At a dosage of 0.5 mg/kg/day of heparinase I, tumor growth was increased by about 39%. […] Inhibition of primary tumor growth by heparinase III was first observed at 2 mg/kg per day. Tumor growth was inhibited by 73% at 12 mg/kg per day, the maximum dosage tested in the study (FIG. 8).
Mice, 15 days after tumor implantation with B16BL6 melanoma, were examined. 4×10^5 log growth phase B16BL6 melanoma cells in 0.1 ml PBS were injected to the flank of C57BL/6 mice on day 1. Daily injection of 0.1 ml of PBS, heat inactivated hep III or active heparinase III (2 mg/ml, recombinantly expressed, purified, buffer exchanged with PBS, and concentrated) started at the day 4 and continued throughout the experiment. At day 7, osmotic pumps (100 μl capacity delivering at 0.5 μl per hour) containing PBS or 3 mg/ml hep III were implanted subcutaneously at a place remote from the tumor site. Mice were sacrificed at day 15.
FIG. 8 depicts the tumor volume of the tumors isolated from the mice described above. Tumor volume was measured daily after day 7 with a caliper and calculated with the formula [volume=0.52×(width)^2×(length)].

B16BL6 melanoma cells = test: Lung metastasis of heparinase treated B16BL6 cells after tail vein injection; type: in vivo, mice; conditions: cells treated 30 min at 37° C. before tail vein injection; 13 days
Experimental: We next investigated the ability of heparinase treated B16BL6 melanoma cells to metastasize to the lungs. B16BL6 cells in log growth phase were briefly trypsinized and resuspended in PBS to a final concentration of 1×10^6 per ml. Prior to injection, cells were treated with either PBS, hep I […] or hep III […] for 30 min. at 37° C. 0.2 ml cell suspensions (2×10^5 cells) were injected slowly via tail vein. Mice were sacrificed 13 days later and lungs were harvested, rinsed with tap water. The number of nodules on lung surface were counted with the assistance of a dissection microscope. * indicates p<0.05 (Mann-Whitney test).

B1: heparinase III: HLGAG degrading enzyme from Flavobacterium heparinum (EC 4.2.2.8), SEQ ID NO:2; cleaves heparan sulfate (protein, listed as Pedobacter heparinus)
chain: MTTKIFKRIIVFAVIALSSGNILAQSSSITRKDFDHINLEYSGLEKVNKAVAAGNYDDAAKALLAYYREKSKAREPDFSNAEKPADIRQPIDKVTREMADKALVHQFQPHKGYGYFDYGKDINWQMWPVKDNEVRWQLHRVKWWQAMALVYHATGDEKYAREWVYQYSDWARKNPLGLSQDNDKFVWRPLEVSDRVQSLPPTFSLFVNSPAFTPAFLMEFLNSYHQQADYLSTHYAEQGNHRLFEAQRNLFAGVSFPEFKDSPRWRQTGISVLNTEIKKQVYADGMQFELSPIYHVAAIDIFLKAYGSAKRVNLEKEFPQSYVQTVENMIMALISISLPDYNTPMFGDSWITDKNFRMAQFASWARVFPANQAIKYFATDGKQGKAPNFLSKALSNAGFYTFRSGWDKNATVMVLKASPPGEFHAQPDNGTFELFIKGRNFTPDAGVFVYSGDEAIMKLRNWYRQTRIHSTLTLDNQNMVITKARQNKWETGNNLDVLTYTNPSYPNLDHQRSVLFINKKYFLVIDRAIGEATGNLGVHWQLKEDSNPVFDKTKNRVYTTYRDGNNLMIQSLNADRTSLNEEEGKVSYVYNKELKRPAFVFEKPKKNAGTQNFVSIVYPYDGQKAPEISIRENKGNDFEKGKLNLTLTINGKQQLVLVP
- level of activated Erk-1, 2 in primary tumor (Erk-1, 2): lower level of activated Erk-1, 2
- FGF-induced proliferation of B16BL6 cells (B16BL6 cells): inhibit FGF-induced proliferation
- phosphorylation of FGFR1 in primary tumor (FGFR1): inhibited phosphorylation of FGFR1
- activation of Akt in tumor (Akt): no change in activation of Akt
- apoptosis in tumor samples, enzyme treated tumors (B16BL6 melanoma [1]): increased apoptosis
- FAK activation in tumor (FAK): inhibited FAK activation
- inhibition of tumor growth (B16BL6 melanoma [2]; 12 mg/kg per day, maximum dosage tested): 73%
- dosage at which inhibition of primary tumor growth was first observed (B16BL6 melanoma [2]; mouse, in vivo): 2 mg/kg per day
- primary tumor growth (B16BL6 melanoma [2]; nude mice and C57BL/6 mice, subcutaneous injections): significant inhibition in primary tumor growth
- ability of treated B16BL6 cells to metastasize to the lungs compared to PBS treated cells (B16BL6 melanoma cells): significantly less able to metastasize to the lungs
